The values below come from article PMC12833424.

Broadly, the Kd is the free concentration of one partner at which half of the binding sites on the other are occupied at equilibrium, for simple one-to-one binding.

In the first data set the test system is IgG1-DS5 (human IgG1/kappa framework, scFv phage library derived). The experiment in a line: SPR steady state. To be noted: 2'-O-methyl; ELISA: streptavidin or anti-FAM plates, PBS/0.05% Tween 20 washes, BSA or Blotto block; EMSA: PBS, 1 h, room temperature, 20 uM oligo, 25 ng/uL IgG, 5% ….
Turning to “UUUUUCCUGUGUCCUGAAGAAAGCA / UUUCUUCAG [T2 duplex without biotin]”, the Kd turned out to be 440 nM.

Staying with this data set, now noted: all 2'-O-methyl, 5' BCN on strand 2, 3' azide on strand 3, reacting to triazole, ELISA: streptavidin or anti-FAM plates, PBS/0.05% Tween 20 washes, BSA or Blotto block, EMSA: PBS, 1 h, room temperature, 20 uM oligo, 25 ng/uL IgG.
The sequence “UUUUUCCUGUGUCCUGAAGAAAGCAAAGACAUCUGGACAU / UUUCUUCAGGACACAG / GUCCAGAUGUCUUUGC [Temp1:BCN-haplomer-1:azide-haplomer-2 complex]” showed a Kd of 330 nM.

The test system is the same in the next data set. The experiment in a line: ELISA. To be noted: 2'-O-methyl; 3' azide on strand 2; ELISA: streptavidin or anti-FAM plates, PBS/0.05% Tween 20 washes, BSA or Blotto block; EMSA: PBS, 1 h, room temperature, 20 uM oligo, 25 ng/uL IgG, 5% …. (In general: ELISA stands for enzyme-linked immunosorbent assay.)
As to “UUUUUCCUGUGUCCUGAAGAAAGCAAAGACAUCUGGACAU / GUCCAGAUGUCUUUGC [D2 template:azide-haplomer-2]”, the binding signal (% of full complex ELISA slope) was 0.

Staying with this data set, now noted: 2'-O-methyl; ELISA: streptavidin or anti-FAM plates, PBS/0.05% Tween 20 washes, BSA or Blotto block; EMSA: PBS, 1 h, room temperature, 20 uM oligo, 25 ng/uL IgG, 5% ….
“UUUCUGAAGAAAUUUCCUGUGUC / UUUCUUCAG [T10 TempFlp:9-co]” returned a binding signal (% of T2 ELISA slope) of 0.
Still for that read-out and setting: the value for “UUUUUCCUGUGUCACAAUAGAG / CUCUAUUGU [T9 TempTr8:complementary 9-mer]” was 0.
As to “UUUUUCCUGUGUCCUGAAGAAA / UUUCUUCAG [T3 TempTr2:9-co]”, the binding signal (% of full complex ELISA slope) was found to be 100.
Still for that read-out and setting: next, “UUUUUCCUGUGUCCUGAAGAAAGCA / UUUCUUCAG [T2 TempTr1:9-co]”: 100; “UUUUUCCUGUGUCCUGAAGAAAGCA / UUUCUUCAGGACACAG [T1 TempTr1:oligo-1]”: 100.
The same measure, in the same setting: next, “UUUUUCCUGUGUCCUGAAGAAAGCAAAGACAUCUGGACAU / AUGUCUUUGCUUUCUUCAGG [D6 template:contig. complement-1]”: 0.8; “UUUUUCCUGUGUCCUGAAGAAAGCAAAGACAUCUGGACAU / GUCCAGAUGUCUUUGC [D4 template:oligo-2]”: 0.
“UUUUUCCUGUGUCCUGAAGAAAGCAAAGACAUCUGGACAU / UUUCUUCAGGACACAG / GUCCAGAUGUCUUUGC [D5 template:oligo-1:oligo-2]” returned a binding signal (% of full complex ELISA slope) of 45.
The sequence “UUUUUCCUGUGUCCUGAAGAAAGCAAAGACAUCUGGACAU / UUUCUUCAGGACACAG [D3 template:oligo-1]” yielded a binding signal (% of full complex ELISA slope) of 76.1.
Regarding “UUUUUCGUGUGUGCUGAAGAAA / UUUCUUCAG [T8 TempTr7:9-co]”, the binding signal (% of T2 ELISA slope) turned out to be 0.
“UUUUUCUCUCUGGCUGAAGAAA / UUUCUUCAG [T5 TempTr4:9-co]” showed a binding signal (% of T2 ELISA slope) of 0.
Same read-out and setting: the value for “UUUUUCUGAAGAA / UUUCUUCAG [T4 TempTr3:9-co]” was 0.
